This note sets out measurements from a protein production outcome set (Wang et al. 2014).

This data set can be described thus: label from the status in PepcDB records.
With “MSLELEWMSIDDLKLPSNVIDIIKNRGIKKLNPPQTEAVKKGLLDGNRLLLTSPTGSGKTLIAEMGIISFLLKNGGKAIYVTPLRALTNEKYLTFKDWESIGFKVAMTSGDYDTDDAWLKNYDIIITTYEKLDSLWRHRPDWLNEANYFVLDELHYLNDPERGPVVESVTIRAKRRNLLALSATISNYKQIAKWLGAEPVATNWRPVPLMEGVMYPERKKKEYTILFRDNTARKVHGDDAIIAYTLDSLSKNGQVLVFRNSRKMAESTALKIANYMNFVSLDEKAISEILKQLDDIEEGGSDEKELLKSLISKGVAYHHAGLSKALRDIIEESFRKRKIKVIVATPTLAAGVNLPARTVIIGDIYRFNRKIVGYYDEIPVMEYKQMSGRAGRPGFDQIGESIIVVRDKEDVDRVFKKYILSDVEPIESKLGSERAFYTFLLGILSAEGSLSEKQLEAFAYESLLAKSVVDVYFDRAIRWLSEHSFIREENNTFTLTNFGKRVADLYINPFTADIIRKGLEGYKASCEIAYLHLLAFTPDGPLVSVGRNEEEELIELLEDLECELLVEEPYEEDEYSLYLNALKVALIMKDWIDEVDEDTILGKYNIGSGDLRNIVETMDWLTYSAYHLSKELRLDDHSDKLRILNLRVTDGVKEELLELVQIGGVGRKRARLLYNNGIKGLGDVVMNPDRVRNLLGQKLGERVVQEAARLLNRFH”, the protein production entry was “failed”.

Regarding “MSLENKENLVVIDLAIAEDSIQKKNIVYDKNGQNHFDVISAFIKSIRGSDPDATLYWLANMVEAGEDPNFIFRRLLISACEDIGLADPNAIVVVQSCCDAFDRVGFPEGLFFLSQASLYLAISPKSNSTKSIFKAMEAIKATNVSLVPNHLKNNASNYLNPHNYQGKWLQQEYLPTDLQGIKFWKPKDSGWEKNKYEDLPKKQKSEGHHHHHH”, the protein production entry was “not failed”.

Take “MSLESGFLEDAQANLTLRNFYFNRNFTNPTKAQGKAEEWTQSFILDAKSGFTQGTVGFGMDVLGLYSLKLDGGKGTGGTQLLPLDHDGRPADNFGRLGVAFKARLSQTEVKVGEWMPVLPILRSDDGRSLPQTFRGGQITSKEIAGLTLYGGQFRANSPRDDSSMSDMSMFGKAAFTSDRFNFQGAEYAFNDKRTQIALWNAQLKDIYSQQFINLIHSQPLGDWTLGANLGFFYGKEDGSARAGDMENRTWSGLFSAKYGGNTFYVGLQKLTGDSAWMRVNGTSGGTLANDSYNASYDNAKEKSWQVRHDYNFAALGVPGLTLMNRYISGSNVHTATVSDGKEWGRESEVAYTVQSGTLKNLNLKWRNSTMRRDFSNNEFDENRLIISYPLSLLEGHHHHHH”: the protein production result is “not failed”.

With “MSLFIALCGLILAGRLILKNYNPQGVLFFVGIVMMTISIFTNNATFVDKSTGWIGFDVFEYISMVFGKQSGGLGLKIMLIGGFALLMSAIGASQVMVKLTAKPLMKLNSPYLMLALAFILGQMLSLFISSATGLGLLLMATLYPVLIRLGCSKAGVASVLASTCAIEFGPGSGNSILAAQTAGLEITEYFVGEQLPIISVLIIVVAIMHAITQRFFDRNDEKNQTLEPINYEDIESEQSAPFYYVILPMLPLFFMLTFSSLGVKTINVGMATAIILSIFISLVFEFIREREVKPVFEKLQGVFDDMGKVFASVVTLIIAGQTFSMGLKSIGAIDSMLHMASSVGLSAAVIILFMALLTFIISALMGSGNAAFFSFAPMVPQIAHKIGANTVDMILPIQLSAGFGRTISPIAGVIIAVAGISGLSPFDIVRRTLIPMVSGWLLMLILTFSKGGQLEQLMPFLIVILVLSVGVGWIMKRKNNRTQLTQ”, the protein production entry is listed as “failed”.

Take “MSLFKRSVVSEITSHAGVVFSTLVVVWLSVLLVRLLGEAAGGSIGADVVLGLAAFSTITALPTILAVSLFIAVLTTVTRNYRESEMVVWFASGLSLADWLRPVARVAVPIAMLVAALTLVASPWAYRQIGEYRERFEQRSDLSKVTAGQFAESGRGDRVFFAEDPVRPGDELGAVFARSIDPEWLSVLTASNARSETLPNGDRFLVLGEGHRYDLKPGTPEIRLVNFDQYGVRLESKAGEDPMAEARAAAERFSKARSTMQLVQDNTDSSWSQIMWRVAMPLAALNLALLAIPLGAVNPRLGRSGDLLIAGLVGLLYMNMINLSRAWISSGKISFSIGVWAVHAVVALLAAYLLMRRLRVKAPRNAGRGA”: the protein production entry is “failed”.

Regarding “MSLGALPTAEDIDAVVLDFDGTQTDDRVLIDSDGREFVSVHRGDGLGIAALRKSGLTMLILSTEQNPVVAARARKLKIPVLHGIDRKDLALKQWCEEQGIAPERVLYVGNDVNDLPCFALVGWPVAVASAHDVVRGAARAVTTVPGGDGAIREIASWILGPSLDSLDKEGHHHHHH”, the protein production result is “not failed”.
